The values below come from publication doi:10.1101/2021.04.22.440577 (bioRxiv, 2021).

Data set [1] addresses 4-fold tyrosine-phosphorylated C-Tir (pC-Tir), EPEC Tir residues 388-550 phosphorylated by Fyn (enteropathogenic Escherichia coli (EPEC)) (UniProt B7UM99). Kind of data set: NMR titration.
Data set [2] deals with the molecule itself. Kind of data set: SEC + other: SAXS.

Chain of 4-fold tyrosine-phosphorylated C-Tir (pC-Tir), EPEC Tir residues 388-550 phosphorylated by Fyn (enteropathogenic Escherichia coli (EPEC)) (B7UM99 388-550): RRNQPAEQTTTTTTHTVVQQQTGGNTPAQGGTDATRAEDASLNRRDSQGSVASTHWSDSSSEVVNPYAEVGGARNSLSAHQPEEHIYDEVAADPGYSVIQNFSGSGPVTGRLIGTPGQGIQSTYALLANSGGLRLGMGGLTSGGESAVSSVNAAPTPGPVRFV

“C-terminal SH2 domain (C-SH2) of host tyrosine phosphatase SHP-1 (domain or fragment)”: in data set [1], the apparent local KD of the remaining pY sites (pY474, pY483, pY511) was in the range of 3 to 9 μM and the fold enhancement of binding at the Y511 ITIM against unphosphorylated C-Tir amounted to 10 fold.

B1: Structured central part of N-Tir (N-Tir 60-200, NS-Tir) (domain or fragment, enteropathogenic Escherichia coli (EPEC), UniProt B7UM99 60-200, looked up)
chain: SVDSRDIPGLPTNPSRLAAATSETCLLGGFEVLHDKGPLDILNTQIGPSAFRVEVQADGTHAAIGEKNGLEVSVTLSPQEWSSLQSIDTEGKNRFVFTGGRGGSGHPMVTVASDIAEARTKILAKLDPDNHGGRQPKDVDT
The term stoichiometry N denotes the number of molecules, sites or subunits per partner or assembly. For B1, the “stoichiometry N” value in data set [2] stood at 2.

B2: N-terminal cytosolic region of EPEC Tir (N-Tir, residues 1-233) (domain or fragment, enteropathogenic Escherichia coli (EPEC), UniProt B7UM99 1-233, looked up)
chain: MPIGNLGNNVNGNHLIPPAPPLPSQTDGAARGGTGHLISSTGALGSRSLFSPLRNSMADSVDSRDIPGLPTNPSRLAAATSETCLLGGFEVLHDKGPLDILNTQIGPSAFRVEVQADGTHAAIGEKNGLEVSVTLSPQEWSSLQSIDTEGKNRFVFTGGRGGSGHPMVTVASDIAEARTKILAKLDPDNHGGRQPKDVDTRSVGVGSASGIDDGVVSETHTSTTNSSVRSDPK
For B2, in data set [2], the “stoichiometry N” value amounted to 2.
